Data taken from article doi:10.1101/2023.01.20.524964 (bioRxiv, 2023).
Where a chain is given by its changes, count along the chain named. Names may count otherwise.

T1: Kapβ2(W373A) (UniProt Q92973-2 1-890, W373A)
T1 sequence (looked up): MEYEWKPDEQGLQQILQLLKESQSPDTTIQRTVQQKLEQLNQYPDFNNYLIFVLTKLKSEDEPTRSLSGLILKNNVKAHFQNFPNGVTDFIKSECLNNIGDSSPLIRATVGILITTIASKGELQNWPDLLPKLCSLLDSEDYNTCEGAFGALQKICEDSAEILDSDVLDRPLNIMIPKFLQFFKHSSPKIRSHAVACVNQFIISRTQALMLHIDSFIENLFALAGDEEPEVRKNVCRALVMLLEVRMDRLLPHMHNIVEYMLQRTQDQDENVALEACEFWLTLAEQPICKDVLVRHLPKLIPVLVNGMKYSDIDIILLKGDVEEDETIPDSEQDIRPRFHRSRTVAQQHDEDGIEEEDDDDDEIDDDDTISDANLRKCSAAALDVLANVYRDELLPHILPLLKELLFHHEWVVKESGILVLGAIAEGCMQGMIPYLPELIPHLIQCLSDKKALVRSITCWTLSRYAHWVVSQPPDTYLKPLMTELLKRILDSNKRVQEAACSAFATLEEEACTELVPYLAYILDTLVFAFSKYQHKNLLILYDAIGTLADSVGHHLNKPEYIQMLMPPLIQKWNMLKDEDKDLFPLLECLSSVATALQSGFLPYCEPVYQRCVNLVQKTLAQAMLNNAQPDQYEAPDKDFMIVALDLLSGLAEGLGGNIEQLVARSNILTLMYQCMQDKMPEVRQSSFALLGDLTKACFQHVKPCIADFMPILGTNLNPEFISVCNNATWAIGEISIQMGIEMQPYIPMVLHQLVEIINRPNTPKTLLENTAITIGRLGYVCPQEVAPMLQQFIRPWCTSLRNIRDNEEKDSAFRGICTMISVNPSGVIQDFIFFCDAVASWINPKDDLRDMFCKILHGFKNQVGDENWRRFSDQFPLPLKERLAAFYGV

T2: Karyopherin-β2 (full length, GST tag removed) (UniProt Q92973-2 1-890)
T2 sequence (looked up): T1 sequence (looked up) with A373W

B1: MBP-HNRNPH2(103-225) (domain or fragment, UniProt P55795 103-225, looked up)
chain: NSPDTANDGFVRLRGLPFGCSKEEIVQFFSGLEIVPNGMTLPVDFQGRSTGEAFVQFASQEIAEKALKKHKERIGHRYIEIFKSSRAEVRTHYDPPRKLMAMQRPGPYDRPGAGRGYNSIGRG
B2: HNRNPH2(103-225) (as used for SEC and cryo-EM) (domain or fragment, UniProt P55795 103-225, looked up)
chain: B1 chain
modifications: mild crosslinking with 0.025% glutaraldehyde in the cryo-EM sample
B3: MBP-HNRNPH2(103-225) P209L (domain or fragment, UniProt P55795 103-225, looked up)
chain: B1 chain with P107L

How the values were obtained:
[1] = molecular target: Karyopherin-β2 (full length, GST tag removed) (UniProt Q92973); test: ITC
Karyopherin-β2 (full length, GST tag removed) (UniProt Q92973), sequence (Q92973 9-898): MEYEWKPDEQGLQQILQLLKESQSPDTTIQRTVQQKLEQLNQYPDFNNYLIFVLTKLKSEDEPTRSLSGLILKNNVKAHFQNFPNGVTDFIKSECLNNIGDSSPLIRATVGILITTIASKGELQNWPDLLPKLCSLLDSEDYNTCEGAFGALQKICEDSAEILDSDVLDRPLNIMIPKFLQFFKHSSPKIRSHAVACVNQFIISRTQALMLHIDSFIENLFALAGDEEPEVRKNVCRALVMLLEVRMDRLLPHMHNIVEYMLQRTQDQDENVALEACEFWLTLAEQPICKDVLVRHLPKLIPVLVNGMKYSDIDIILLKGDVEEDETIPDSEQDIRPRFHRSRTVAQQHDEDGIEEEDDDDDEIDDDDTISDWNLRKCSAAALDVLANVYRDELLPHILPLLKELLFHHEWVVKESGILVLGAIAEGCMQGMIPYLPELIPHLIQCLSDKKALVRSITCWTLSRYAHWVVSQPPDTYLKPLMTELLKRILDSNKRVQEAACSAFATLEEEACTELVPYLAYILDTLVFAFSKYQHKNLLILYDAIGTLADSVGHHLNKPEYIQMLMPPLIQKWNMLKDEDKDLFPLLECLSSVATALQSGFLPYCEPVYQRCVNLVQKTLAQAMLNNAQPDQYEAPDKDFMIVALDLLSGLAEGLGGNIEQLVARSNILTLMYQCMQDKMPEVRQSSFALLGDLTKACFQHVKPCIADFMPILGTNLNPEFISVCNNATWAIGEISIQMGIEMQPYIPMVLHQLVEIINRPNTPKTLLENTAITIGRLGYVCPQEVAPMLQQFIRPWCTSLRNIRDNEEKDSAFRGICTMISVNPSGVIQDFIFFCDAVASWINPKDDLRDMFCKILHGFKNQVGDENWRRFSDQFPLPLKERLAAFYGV

[2] = molecular target: T1, Kapβ2(W373A); test: ITC
[3] = molecular target: T2, Karyopherin-β2 (full length, GST tag …); test: ITC
[4] = molecular target: T2, Karyopherin-β2 (full length, GST tag …); test: SEC

Row | Molecule | Kd [2] | Kd [3] | other results
1 | MBP-HNRNPH2 R212A (ITC) (from UniProt P55795 103-225) (domain or fragment) | – | – | Kd [1]: 3200 nM
2 | HNRNPM PY-NLS (domain or fragment) | 9 nM | – | –
3 | EVRTHYDPPRKLMAMQRPGPYDRPGAGRGYNSIGRG (domain or fragment, UniProt P55795 190-225, looked up) [MBP-HNRNPH2(190-225)] | – | 40 nM | –
4 | B1 | 6100 nM | 50 nM | –
5 | B2 | – | – | binding result [4]: binds
6 | B3 | – | – | fold decrease of affinity against wild type [3]: ~200 fold
